Molecular target: HLA-B*57:01–TW10 (human |  | HIV-1)
Experiment: SPR

B1: KIR3DL1*001 (similar construct, from insect cells) (receptor)
chain: HMGGQDKPFLSAWPSAVVPRGGHVTLRCHYRHRFNNFMLYKEDRIHIPIFHGRIFQESFNMSPVTTAHAGNYTCRGSHPHSPTGWSAPSNPVVIMVTGNHRKPSLLAHPGPLVKSGERVILQCWSDIMFEHFFLHKEGISKDPSRLVGQIHDGVSKANFSIGPMMLALAGTYRCYGSVTHTPYQLSAPSDPLDIVVTGPYEKPSLSAQPGPKVQAGESVTLSCSSRSSYDMYHLSREGGAHERRLPAVRKVNRTFQADFPLGPATHGGTYRCFGSFRHSPYEWSDPSDPLLVSVTGNPS
Question: B1 was tested. Which Kd did it give?
Answer: ~60 µM

From publication PMC7900914 (Nature structural & molecular biology, 2017)
